Measurements from patent US20040106173A1, “Bot1: target for antifungal agents” (The University of Miami, priority 2001, published 2004).

How the values were obtained:
[1] = test system: microtubule cytoskeleton of fission yeast cells expressing Myc-Bot1; test: Microtubule depolymerization and Bot1p localization by immunofluorescence in cells expressing Myc-Bot1; format: cell-based, Schizosaccharomyces pombe; conditions: cells expressing Myc-Bot1 exposed for 45 min
Protocol: Cells in liquid cultures were grown exponentially for at least eight generations, at densities below 10^7 cells/ml, before the start of the experiment. Immunofluorescent staining was performed as described (46). Cells were fixed in methanol and stained with the following primary antibodies: a rabbit polyclonal antibody anti-Tea1p (40, a kind gift of Dr. P. Nurse, ICRF London), a rabbit polyclonal antibody anti-Orb6p, a monoclonal anti-hemagglutinin (HA) antibody (Covance), and a chicken polyclonal anti-Myc antibody (Molecular Probes). For actin and microtubule staining, a monoclonal anti-actin antibody (Amersham Pharmacia Biotech) and a monoclonal anti-tubulin antibody (TAT1; a kind gift of Dr. K. Gull), respectively, were used A CY3-conjugated anti-mouse, a CY3-conjugated anti-rabbit, or an FITC-conjugated anti-mouse were used as secondary antibodies (Sigma). Cells were immobilized on coverslips using PBS-containing antifade (Molecular Probes) as mounting medium and photographed using a Zeiss Axiophot microscope or a Leica DMRA microscope, equipped with Metamorph 1.7.4 software (Universal Images).
Because our previous results indicated a role for Tea1p in the control of Bot1p function, the effect of microtubule depolymerization on Bot1p localization was assessed. […]

[2] = biological target: T1, GAL4 binding domain fused to Cdc23p (pAS1-cdc23) (fission yeast, UniProt P04386 1-147; O42709 1-593); test: yeast two-hybrid (HIS3 and LACZ reporters)
T1 construct: Two-hybrid control bait
Excerpt: (§1) The tea1 gene was fused to the DNA binding domain of GAL4 in a plasmid (pAS1) carrying the trp1 marker. The orb6 gene was fused to the DNA binding domain of GAL4 (pAS1-orb6) and to the GAL4 activator domain (pACT2-orb6). The cDNA library was cloned to the transcription activator domain of GAL4 in a plasmid (pACT) carrying the leu2 marker. Plasmids pAS1, pACT2, pSE1111 (pACT-SNF4), pSE1112 (pAS1-SNF1), pAS1-p53, pAS1-lamin and the S. pombe library prepared in phage λ vectors and plasmids pAS1-SNF1 and pAS1-lamin, both harbored in Y187 strain, were kindly provided by Dr. S. Elledge. The test for cell growth on medium lacking histidine, the beta-galactosidase activation assay and the mating test to detect interaction specificity were performed as described (14). After screening 2×10⁶ transformants, we found five proteins that interact with Orb6p and four that interact with Tea1p in this system, and that were identified multiple times in the screen. Clones containing bot1+ were isolated 22 times in the Orb6p screen and eight times in the Tea1p screen. All clones contained the full-length bot1 sequence, although they usually lacked the initial ATG codon. For beta-galactosidase activation, three independent transformants were assayed for each condition.
(§2) To identify novel components of the Orb6p pathway, a two-hybrid screen was performed to identify cDNAs encoding proteins that interact with Orb6p. One of these, isolated 22 times in this screen, was a novel protein that we named Bot1p. […] The specificity of the positive interaction between Orb6p and Bot1p in the two-hybrid system was controlled by cotransformation of pAS1-orb6 and pACT-bot1 independently with a number of control plasmids. Co-expression of SNF1p or SNF4p was used as positive controls. Orb6p was unable to support the activation of the LACZ-GAL4 and HIS3-GAL4 promoters when co-expressed with GAL4 activation domain fused to SNF4p, or with the GAL4 activation domain (GAD) alone. Bot1p was unable to support the activation of the LACZ-GAL4 and HIS3-GAL4 promoters when co-expressed with the GAL4 binding domain fused to p53, Cdc23p, GAL4 DNA binding domain (GBD) alone, or fused to SNF1p or Cdt1p.

[3] = biological target: GAL4 binding domain fused to SNF1p (pSE1112, pAS1-SNF1) (UniProt P04386 1-147; P06782 1-633); test: yeast two-hybrid (HIS3 and LACZ reporters)
Excerpt: as §1, §2

[4] = biological target: T2, GAL4 binding domain fused to Cdt1p (pAS1-cdt1) (fission yeast, UniProt P04386 1-147; P40382 1-422, limits assumed); test: two-hybrid library screens with other baits; dot blotting of the isolated pACT plasmids
T2 construct: Two-hybrid control bait

[5] = biological target: T3, GST-tagged Tea1p (pESP-GSTtea1+) (Schizosaccharomyces pombe, UniProt P87061 1-1147); test: glutathione beads carrying GST-Tea1p incubated with a fission yeast extract containing HA-Cdc23p
T3 construct: also called GST-Tea1p
T3 sequence (looked up): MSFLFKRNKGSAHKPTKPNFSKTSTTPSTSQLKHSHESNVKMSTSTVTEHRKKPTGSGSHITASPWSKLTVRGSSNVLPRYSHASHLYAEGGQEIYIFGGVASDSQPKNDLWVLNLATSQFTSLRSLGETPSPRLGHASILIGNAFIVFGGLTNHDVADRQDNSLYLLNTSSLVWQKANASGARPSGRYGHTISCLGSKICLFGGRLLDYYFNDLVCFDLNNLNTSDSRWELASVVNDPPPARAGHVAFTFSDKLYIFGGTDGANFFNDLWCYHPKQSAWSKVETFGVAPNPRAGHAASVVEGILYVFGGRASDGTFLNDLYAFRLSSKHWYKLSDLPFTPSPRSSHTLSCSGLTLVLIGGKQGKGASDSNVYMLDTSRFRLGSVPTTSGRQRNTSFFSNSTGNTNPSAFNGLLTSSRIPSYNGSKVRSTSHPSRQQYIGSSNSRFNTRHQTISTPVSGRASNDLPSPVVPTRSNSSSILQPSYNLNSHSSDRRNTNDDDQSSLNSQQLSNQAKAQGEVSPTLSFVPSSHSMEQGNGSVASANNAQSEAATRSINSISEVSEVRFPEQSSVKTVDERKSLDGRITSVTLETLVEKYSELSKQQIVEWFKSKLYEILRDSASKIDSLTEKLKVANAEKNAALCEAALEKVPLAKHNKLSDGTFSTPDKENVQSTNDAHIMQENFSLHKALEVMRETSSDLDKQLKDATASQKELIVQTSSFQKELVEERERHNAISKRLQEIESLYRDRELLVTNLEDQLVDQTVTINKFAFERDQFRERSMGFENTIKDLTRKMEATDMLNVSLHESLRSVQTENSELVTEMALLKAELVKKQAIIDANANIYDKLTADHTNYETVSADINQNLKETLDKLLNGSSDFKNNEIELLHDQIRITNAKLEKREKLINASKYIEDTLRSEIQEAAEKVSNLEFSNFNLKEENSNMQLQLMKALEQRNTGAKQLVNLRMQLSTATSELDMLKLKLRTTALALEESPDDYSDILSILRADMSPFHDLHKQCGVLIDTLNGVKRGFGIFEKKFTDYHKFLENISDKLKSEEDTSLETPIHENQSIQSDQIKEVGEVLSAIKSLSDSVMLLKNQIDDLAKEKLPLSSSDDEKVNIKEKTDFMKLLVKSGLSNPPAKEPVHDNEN
Protocol: Cell extracts were prepared as described. GST-Tea1p and GST were purified using glutathione beads (Molecular Probes). Beads were spun, and further incubated for 4 hr with an extract containing HA-Bot1p or a control extract containing HA-Cdc23p.
Glutathione beads were washed three times in HB buffer and then eluted. The eluate was run on a 10% polyacrylamide gel, blotted on nitrocellulose, and probed with a primary anti-HA antibody (Covance) or, separately, with a primary anti-GST antibody (Molecular Probes) and with a horseradish peroxidase-conjugated secondary antibody (ECL, Amersham).
To confirm this interaction between Tea1p and Bot1p in fission yeast extracts, GST-Tea1p and HA-Bot1p were co-expressed in fission yeast cells, and GST-Tea1p was purified using glutathione-coupled resin. The beads were further incubated with an extract containing HA-Bot1p or HA-Cdc23p as a control.

Q: What does the source list for `COC(=O)Nc1nc2ccccc2[nH]1` [MBC, methyl-benzidazole-carbamate]?
A: effect on microtubule cytoskeleton ([1]; DMSO control): virtually complete microtubule depolymerization; Bot1p localization ([1]; DMSO control showed normal Bot1p localization at the cell tips): more spread out and less restricted to the cell tips

B1: Bot1p fused to the GAL4 activation domain (pACT-bot1) (other, not shown: large carriers)
chain: MRNSVEFSQLGLKTAFNLSQNKTYTSAVKKQFFSTGAFLSNGGNIDLNKHTQKNIDSKYVACNSRSVTPPNDVASSVSKNTLRHKQRLMMAQWLMSPEVQKAKSSSSGNVGLGPNTNQPFPLNPFFKPPRPISHSLRMKITDEYLQGASIEVLARKFNTSPQRIEALIKLRRINDEFEEKKKPILHSYNEVMEKMLNACTKPEMMQFNDGNDIPLRSNPVSLWKSLPEGETFTPQEAAKILKWPSIEELNMRQNATHFHKTSDEHKDLNEDEELISSSPSEVGKRVFRLIDLSTGNVYRRDTGGDIYVKRKKSTT
notes: also called bot1+ clones
Q: Does B1 bind [2]?
A: Result: no binding

Q: Does B1 bind [3]?
A: Result: no binding

Q: Does B1 bind [4]?
A: Result: no binding

B2: HA-tagged Cdc23p (pRep41-HA3cdc23) (other, fission yeast, UniProt O42709 1-593, looked up, not shown: small tags and cut ends)
chain: MHDPFIAEENDLDLEEKRLQRQLNEIQEKKRLRSAQKEASSENAEVIQVPRSPPQQVRVLTVSSPSKLKSPKRLILGIDKGKTGKDVSLGKGPRGPLPKPFHERLAEARNQERKRSDKLKTMKKNRKQSFQRKRNILEDGKSEEEKFPMKCDEIDPYSRQAIVIRYISDEVAKENIGGNQVYLIHQLLKLVRAPKFEAPEVDNYVVMGIVASNSGTRETVNGNKYCMLTLTDLKWQLECFLFGKAFERYWKIQSGTVIALLNPEVLKPKNPDIGRFSLKLDSEYDVLLEIGRSKHLGYCSSRRKSGELCKHWLDKRAGDVCEYHVDLAVQRSMSTRTEFASSMATMHEPRARREKRFRGQGFQGYFAGEKYSAIPNAVAGLYDAEDAVQTERERKERYKKQRAQAEREREILVRLSKRCCASSSSSSNSNNLSTGMSMRTLGHQYLNLQGSGVKNLHDKGNPTALSKDSEIDSSTKKPSVLASFNASIMNPKSSLPSFSNSAILGTNDAASGTPVPQDTTSTKVSPAVVFTSSPRIFSPQSLRKIGFDPTHSADASTTHSTATGLSRSGSLKNIKFRYEFTESDDEDDLEIVP
notes: also called HA-Cdc23p; HA-Cdc23
Q: Does B2 bind [5]?
A: Result: no binding
